Experimental data taken from US20220356247A1 (NANJING IMMUNOPHAGE BIOTECH, published 2022).
Positions count from the first letter of the chain named.

B1: anti-ROR1 antibody clone C3 (antibody, V domains shown)
VH: QVQLQESGPGLVKPSETLSLTCTVSGGSISSYYWSWIRQLPGKGLEWIGYMHYSGSTSYNPSLKGRLTISVDTSTNQFSLKLGSVTAADTAVYYCARYYYHDSSGYYSYFDYWGQGTLVTVSS
VL: EIVLTQSPGTLSLSPGERATLSCRASQSVSSYLAWYQQKAGQAPRLLIYDASNRASGIPARFSGSGSGTDFTLTISSLEPEDFAVYYCQQRSNWPPTFGGGTKVEIK
notes: Fully human clone from a naive phage library
B2: anti-ROR1 antibody clone G3 (antibody, V domains shown)
VH: QVQLQQWGAGLLKPSETLSLTCAVYGGSFSGYYWSWIRQPPGKGLEWIGEINHSGSTSYNPSLKSRVTISVDTSKNQFSLKLSSVTAADTAVYYCARGHSSGWYRRYFDLWGRGTLVTVSS
VL: B1 VL with G9A, A40P, S56T, R61K
notes: as for B1
B3: anti-ROR1 antibody clone G6 (antibody, V domains shown)
VH: EVQLVESGGGVVQPGGSLRLSCAASGFTFDDYAMHWVRQAPGKGLEWVSLISGDGGSTYYADSVKGRFTISRDNAKNSLYLQMNSLRAEDTAVYYCARDNWNDVYYYYGMDVWGQGTTVTVSS
VL: DIQLTQSPSSLSASIGDTVTISCQASRDISDYLNWYQHKPGKAPKLLIYDASNLATGVPSRFSGSGSGTDFTLTIKSLQPEDVATYFCQQDDLLPLTFGGGTKVDIK
notes: as for B1

target: T1, human ROR1 (human, UniProt Q01973 30-403, limits assumed); test: affinity for human ROR1, method not stated
T1 construct: also called receptor tyrosine kinase-like orphan receptor 1
T1 sequence (Q01973 30-403 limits assumed): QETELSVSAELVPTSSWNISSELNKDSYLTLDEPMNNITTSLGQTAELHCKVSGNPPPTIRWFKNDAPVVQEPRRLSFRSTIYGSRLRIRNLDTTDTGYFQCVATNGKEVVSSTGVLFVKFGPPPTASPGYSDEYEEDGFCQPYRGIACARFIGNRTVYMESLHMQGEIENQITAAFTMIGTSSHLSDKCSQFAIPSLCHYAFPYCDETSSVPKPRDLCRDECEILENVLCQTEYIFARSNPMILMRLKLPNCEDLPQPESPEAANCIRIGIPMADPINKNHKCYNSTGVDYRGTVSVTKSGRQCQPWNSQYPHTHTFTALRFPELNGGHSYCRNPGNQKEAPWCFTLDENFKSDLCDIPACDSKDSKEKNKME

Binder	Kd
B1	3.25 nM
B2	4.48 nM
B3	43.7 nM
